Reference: patent US20110274702A1

B1: FI28 variant 1 (antibody, V domains shown)
VH: EVQLVESGGGAVQPGESLKLSCAASGFTFSNYGMHWVRQAPGKGLEWVAVISYDGSNKYYADSVKGRFTISRDNSKDTLYLQMNSLRAEDTALFYCAKERPLRLLRYFDWLSGGANDYWGQGTLVTVSS
VL: DIVMTQSPDSLAVSLGERATINCKSSQSVLYSSNNKNYLAWYQQKPGQPPKLLIDWASTRESGVPDRFSGSGSGTDFTLTISNLQVEDVAVYYCQQYYRSPSFGQGTKLEIK
B2: FI6 variant 2 (antibody, V domains shown)
VH: QVQLVQSGGGVVQPGRSLRLSCVASGFTFSTYAMHWVRQAPGRGLEWVAVISYDGNYKYYADSVKGRFSISRDNSNNTLHLEMNTLRTEDTALYYCAKDSQLRSLLYFEWLSQGYFDPWGQGTLVTVTS
VL: DIQMTQSPDSLAVSLGARATINCKSSQSVTFNYKNYLAWYQQKPGQPPKVLIYWASARESGVPDRFSGSGSGTDFTLTISSLQAEDVAVYYCQQHYRTPPTFGQGTKVEIK

Key:
[1] = molecular target: H7N7 A/Netherlands/219/03 HA protein (influenza A virus H7N7 A/Netherlands/219/03); assay: ELISA on HA
[2] = molecular target: H7N7 A/Netherlands/219/03 HA protein (influenza A virus H7N7 A/Netherlands/219/03); assay: ELISA on coated HA

| Binder | Binding to HA by ELISA (% of subtype specific control antibodies) [1] | EC50 [2] |
| --- | --- | --- |
| B1 | -0.5% |  |
| B2 | 87.9% | 0.026 µg/mL |
